In US20260191982A1 (GENOME, published 2026):
“And” between values parts separate entries of the source, which are not always exact repeats. Equal entries are not always repeated.

How the values were obtained:
[1] = target: T1, human BCAM recombinant protein (SinoBiological, USA) (human, UniProt P50895 32-547); assay: sandwich ELISA, human BCAM captured by coated anti-His antibody, anti-human IgG Fc-HRP detection
T1 construct: Bought protein; In the sandwich ELISA it was captured by a coated anti-His antibody, which implies a His tag; also called recombinant human BCAM protein; basal cell adhesion molecule
T1 sequence (looked up): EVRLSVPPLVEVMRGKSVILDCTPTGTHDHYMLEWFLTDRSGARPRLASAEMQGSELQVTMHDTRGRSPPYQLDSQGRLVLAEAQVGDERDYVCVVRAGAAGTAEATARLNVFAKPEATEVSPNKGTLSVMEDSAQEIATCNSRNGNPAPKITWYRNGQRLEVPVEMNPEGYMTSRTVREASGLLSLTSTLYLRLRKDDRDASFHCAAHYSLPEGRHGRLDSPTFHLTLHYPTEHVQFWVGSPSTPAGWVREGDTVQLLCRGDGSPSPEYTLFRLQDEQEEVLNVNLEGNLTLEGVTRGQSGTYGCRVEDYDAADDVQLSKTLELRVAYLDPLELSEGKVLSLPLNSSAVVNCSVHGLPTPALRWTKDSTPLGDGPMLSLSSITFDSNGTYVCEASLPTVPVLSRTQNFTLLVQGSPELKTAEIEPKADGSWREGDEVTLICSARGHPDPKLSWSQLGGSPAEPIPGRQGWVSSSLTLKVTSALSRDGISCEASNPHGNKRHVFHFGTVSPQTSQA
Description: The binding affinity of Ab1 and Ab3 to human BCAM recombinant protein was evaluated using sandwich ELISA (Enzyme-Linked Immunosorbent Assay) method. Anti-His antibody (Biolegend, USA) diluted in PBS to 4 μg/mL was added to 96-well plate (ThermoFisher Scientific, USA) and incubated overnight at 4° C. Next day, solution containing anti-his antibody was removed, and the plate was washed 3 times with 300 μL of PBS-T (0.1% Tween-20 in PBS). The plate coated with anti-his antibody was blocked with 300 μL of 3% skim milk blocking buffer for 1 hr at room temperature. Human BCAM (SinoBiological, USA) diluted in blocking buffer to 25 nM, and 100 μL of prepared proteins was added to 96-well plate and incubated for 1 hr at room temperature. The plate was washed 3 times with 300 μL of PBS-T, and 100 μL of Ab1 and Ab3 (6.4 pM~500 nM, serial 5-fold dilution, 8 points) diluted with blocking buffer was added to each well and incubated for 1 hr at room temperature. […] The absorbance (Optical density at […]) was measured at 450 nm using Synergy H1 (BioTek, Winooski, VT). The graphs were generated as sigmoidal dose-response curves and EC₅₀ values were determined by nonlinear regression with a three-parameter logistic equation using GraphPad Prism software (GraphPad Software Inc., San Diego, CA, USA).

[2] = target: T2, human BCAM overexpressed on HEK293FT cells (HEK293FT/hBCAM) (human, UniProt P50895 32-628); assay: flow cytometry on HEK293FT cells overexpressing human BCAM, geometric MFI
T2 construct: whole, on cells; also called HEK293FT/hBCAM cells; BCAM-overexpressing HEK293 cells
T2 sequence (looked up): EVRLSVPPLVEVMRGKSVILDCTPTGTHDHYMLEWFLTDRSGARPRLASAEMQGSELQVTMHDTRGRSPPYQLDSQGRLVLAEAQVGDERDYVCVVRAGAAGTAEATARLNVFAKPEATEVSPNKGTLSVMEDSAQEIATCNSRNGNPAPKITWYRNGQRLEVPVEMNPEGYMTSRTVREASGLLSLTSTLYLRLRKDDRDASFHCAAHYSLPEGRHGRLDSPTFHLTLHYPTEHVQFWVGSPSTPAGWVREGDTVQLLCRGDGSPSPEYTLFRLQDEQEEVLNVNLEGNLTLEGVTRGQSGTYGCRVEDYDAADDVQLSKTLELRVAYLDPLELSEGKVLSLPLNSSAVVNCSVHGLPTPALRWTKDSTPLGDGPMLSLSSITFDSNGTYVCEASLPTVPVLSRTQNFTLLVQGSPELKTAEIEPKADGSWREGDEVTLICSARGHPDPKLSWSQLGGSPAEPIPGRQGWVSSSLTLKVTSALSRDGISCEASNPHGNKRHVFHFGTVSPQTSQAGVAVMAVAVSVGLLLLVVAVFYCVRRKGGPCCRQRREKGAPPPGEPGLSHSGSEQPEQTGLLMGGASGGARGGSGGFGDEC
Description: The binding affinity of Ab1, Ab2 and Ab3 to HEK293FT cells overexpressing human BCAM (HEK293FT/hBCAM) was evaluated by flow cytometry analysis. HEK293FT cells (3.0×10⁶) were seeded to 10 cm cell culture dish and incubated for […], 5% CO₂ incubator. The next day, jetPRIME transfection reagent (20 μL) and human BCAM expression plasmid (10 μg) prepared in jetPRIME transfection buffer (200 μL) were mixed and incubated for 10 min at room temperature. The mixture was added to HEK293FT cells drop-wisely and incubated for 4 hr at 37° C., 5% CO₂ incubator. After 4 hr, the mixture from HEK293FT cells was replaced with fresh complete media and incubated for overnight. HEK293FT/hBCAM cells prepared at 1.0×10⁵ cells/100 μL in FACS buffer. The 100 μL of Ab1, Ab2 (3 pM~56 nM, serial 3-fold dilution, 10 points) and Ab3 (1.524 pM~30 nM, serial 3-fold dilution, 10 points), and HG4K IgG4 (SinoBiological, USA) and HG1K IgG1 (SinoBiological, USA) diluted with FACS buffer was added to cells and incubated for 30 min at 4° C. The cells were washed twice with 200 μL of FACS buffer, and then 1 μg/mL of secondary antibody (AlexaFlour® 647 AffiniPure Goat Anti-Human IgG (H+L), JacksonImmunoResearch, USA) diluted with FACS buffer was added to cells and incubated for 30 min at 4° C. in the dark. After washing twice with 200 μL of FACS buffer, and 7-AAD diluted with FACS buffer (1:100) was added to cells and transferred to FACS tubes for analysis. At least 1.0×10⁴ live cells per sample were read using FACSCantoII (BD, USA). The geometric mean fluorescence intensity for assessing the Ab1, Ab2 and Ab3 binding to hBCAM on HEK293FT/hBCAM cells was measured. The graphs were generated as sigmoidal dose-response curves and EC₅₀ values were determined by nonlinear regression with a four-parameter logistic equation using GraphPad Prism software (GraphPad Software Inc., San Diego, CA, USA). […] See FIGS. 20a and 20b and Table 1D and 1E.

[3] = target: T1, human BCAM recombinant protein …; assay: indirect ELISA, human BCAM coated on plate at 25 nM, anti-human IgG Fc-HRP detection
Description: The binding affinity of Ab1 and Ab2 to human BCAM recombinant protein was evaluated using an indirect ELISA (Enzyme-Linked Immunosorbent Assay) method. Human BCAM (SinoBiological, USA) diluted in PBS to 25 nM, and 50 μL of prepared proteins was added to 96-well half plate (Costar, USA) and incubated overnight at 4° C. Next day, solution containing human BCAM was removed, and the plate was washed 3 times with 150 μL of PBS-T (0.1% Tween-20 in PBS). The plate coated with human BCAM was blocked with 150 μL of 3% BSA blocking buffer for 1 hr at 37° C. Blocking buffer was removed, and 50 μL of Ab1 and Ab2 (6 pM~1 μM, serial 3-fold dilution, 12 points), and HG4K IgG4 (SinoBiological, USA) and HG1K IgG1 (SinoBiological, USA) diluted with blocking buffer was added to each well and incubated for 2 hr at 37° C. The plate was washed 3 times with 150 μL of PBS-T, and secondary antibody (HRP-conjugated anti-human IgG Fc antibody; ThermoFisher Scientific, USA) diluted with blocking buffer (1:100,000) was added to each well and incubated for 1 hr at 37° C. […] The absorbance (Optical density at 450 nm, OD₄₅₀) was measured at 450 nm using Synergy H1 (BioTek, Winooski, VT). The graphs were generated as sigmoidal dose-response curves and EC₅₀ values were determined by nonlinear regression with a four-parameter logistic equation using GraphPad Prism software (GraphPad Software Inc., San Diego, CA, USA).

B1: Ab1 (anti-BCAM antibody, human IgG4 S228P isotype) (antibody)
heavy: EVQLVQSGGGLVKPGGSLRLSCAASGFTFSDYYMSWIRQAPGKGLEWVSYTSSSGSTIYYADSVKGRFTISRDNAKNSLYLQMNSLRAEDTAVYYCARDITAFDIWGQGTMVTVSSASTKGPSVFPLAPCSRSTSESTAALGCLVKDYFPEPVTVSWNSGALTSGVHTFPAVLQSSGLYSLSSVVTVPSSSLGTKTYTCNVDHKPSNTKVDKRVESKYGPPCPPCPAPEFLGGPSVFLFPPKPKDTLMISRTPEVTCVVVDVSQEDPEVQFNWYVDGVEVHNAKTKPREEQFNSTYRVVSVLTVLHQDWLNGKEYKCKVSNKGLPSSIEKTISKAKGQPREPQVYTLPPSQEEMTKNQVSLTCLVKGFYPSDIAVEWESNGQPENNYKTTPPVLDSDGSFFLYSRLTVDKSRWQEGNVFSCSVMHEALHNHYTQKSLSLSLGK
light: LPVLTQPPSASGSPGQSVTISCTGTSSDVGGYNYVSWYQQHPGKAPKLMIYEVNKRPSGVPDRFSGSKSGNTASLTVSGLQAEDEADYYCCSYAGSNNYVFGTGTKVTVLGQPKAAPSVTLFPPSSEELQANKATLVCLISDFYPGAVTVAWKADSSPVKAGVETTTPSKQSNNKYAASSYLSLTPEQWKSHRSYSCQVTHEGSTVEKTVAPTECS
notes: human IgG4 S228P isotype, lambda light chain; expressed in ExpiCHO-S cells
EC50 [1]: 1.28 nM and 0.192 µg/mL | EC50 [2]: 0.184 nM and 0.027 µg/mL | EC50 [3]: 0.112 nM

B2: Ab2 (anti-BCAM antibody, human IgG1 isotype) (antibody)
heavy: not shown
light: LPVLTQPPSASGSPGQSVTISCTGTSSDVGGYNYVSWYQQHPGKAPKLMIYEVNKRPSGVPDRFSGSKSGNTASLTVSGLQAEDEADYYCCSYAGSNNYVFGTGTKVTVLGQPKAAPSVTLFPPSSEELQANKATLVCLISDFYPGAVTVAWKADSSPVKAGVETTTPSKQSNNKYAASSYLSLTPEQWKSHRSYSCQVTHEGSTVEKTVAPTECS
notes: human IgG1 isotype
EC50 [2]: 0.232 nM and 0.034 µg/mL | EC50 [3]: 0.078 nM

B3: Ab3 (anti-BCAM antibody, human IgG1 LALA isotype) (antibody)
heavy: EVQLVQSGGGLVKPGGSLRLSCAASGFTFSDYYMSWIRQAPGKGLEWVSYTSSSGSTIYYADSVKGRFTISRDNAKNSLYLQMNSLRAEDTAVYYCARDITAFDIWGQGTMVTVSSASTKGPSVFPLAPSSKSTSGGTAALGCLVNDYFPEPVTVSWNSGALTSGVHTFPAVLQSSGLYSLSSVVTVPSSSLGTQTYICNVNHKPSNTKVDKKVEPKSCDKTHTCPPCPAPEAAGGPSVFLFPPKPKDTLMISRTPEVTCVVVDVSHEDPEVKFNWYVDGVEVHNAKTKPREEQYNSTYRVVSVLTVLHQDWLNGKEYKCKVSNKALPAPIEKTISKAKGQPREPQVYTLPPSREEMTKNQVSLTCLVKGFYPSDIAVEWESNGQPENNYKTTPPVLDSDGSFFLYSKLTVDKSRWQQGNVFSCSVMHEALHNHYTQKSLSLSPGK
light: LPVLTQPPSASGSPGQSVTISCTGTSSDVGGYNYVSWYQQHPGKAPKLMIYEVNKRPSGVPDRFSGSKSGNTASLTVSGLQAEDEADYYCCSYAGSNNYVFGTGTKVTVLGQPKAAPSVTLFPPSSEELQANKATLVCLISDFYPGAVTVAWKADSSPVKAGVETTTPSKQSNNKYAASSYLSLTPEQWKSHRSYSCQVTHEGSTVEKTVAPTECS
notes: human IgG1 LALA isotype
EC50 [1]: 1.31 nM and 0.197 µg/mL | EC50 [2]: 0.167 nM and 0.025 µg/mL
